Biological target: AcrIF25 (A. baumannii)
Experiment: cross-linking

With AcrIF25 (natural protein) as the substance, how does the stoichiometry N read?
Its stoichiometry N is 2.
